Laboratory results: patent US20010041670A1, “Thrombospondin-binding region of histidine-rich glycoprotein and method of use” (priority 1999, published 2001)
“Also recorded” adds a separate entry of the source.

B1: HRGP: Histidine-rich glycoprotein, plasma protein purified from human plasma by lys-plasminogen affinity chromatography (protein)
chain: VSPTDCSAVEPEAEKALDLINKRRRDGYLFQLLRIADAHLDRVENTTVYYLVLDVQESDCSVLSRKYWNDCEPPDSRRPSEIVIGQCKVIATRHSHESQDLRVIDFNCTTSSVSSALANTKDSPVLIDFFEDTERYRKQANKALEKYKEENDDFASFRVDRIERVARVRGGEGTGYFVDFSVRNCPRHHFPRHPNVFGFCRADLFYDVEALDLESPKNLVINCEVFDPQEHENINGVPPHLGHPFHWGGHERSSTTKPPFKPHGSRDHHHPHKPHEHGPPPPPDERDHSHGPPLPQGPPPLLPMSCSSCQHATFGTNGAQRHSHNNNSSDLHPHKHHSHEQHPHGHHPHAHHPHEHDTHRQHPHGHHPHGHHPHGHHPHGHHPHGHHPHCHDFQDYGPCDPPPHNQGHCCHGHGPPPGHLRRRGPGKGPRPFHCRQIGSVYRLPPLRKGEVLPLPEANFPSFPLPHHKHPLKPDNQPFPQSVSESCPGKFKSGFPQVSMFFTHTFPK
B2: CD36 FP298-439: CD36-GST fusion protein which does not bind TSP-1 (protein)
chain: KAFASPVENPDNYCFCTEKIISKNCTSYGVLDISKCKEGRPVYISLPHFLYASPDVSEPIDGLNPNEEEHRTYLDIEPITGFTLQFAKRLQVNLLVKPSEKIQVLKNLKRNYIVPILWLNETGTIGDEKANMFRSQVTGKIN
modifications: left off: a dimerising Fc or GST

Legend:
C57B1/6 mice = assay: In vivo subcutaneous Matrigel plug assay
Method: In vivo subcutaneous Matrigel plug assays were performed as described (23). Briefly, 500 μl of Matrigel mixed with proteins or growth factors was injected subcutaneously near the abdominal midline of C57B1/6 mice. Gels were removed after 10 days, fixed in 1% paraformaldehyde, embedded in paraffin, sectioned, and stained with hematoxylin and eosin. Immunohistochemistry was performed on unstained sections using an anti-human von Willebrand factor (vWF) IgG (Dako, Glostrup, Denmark) or isotype-matched control (Sigma) and a biotin-streptavidin-peroxidase antibody and development system (Vector Laboratories, Burlingame, Calif.) as described (24) and counterstained with Mayer's hematoxylin (ImmunoGenex, San Ramon, Calif., USA). After scanning, the degree of angiogenesis was determined by counts of vWF-positive blood vessels using Scion Image. For breast tissue, frozen sections of freshly obtained human breast carcinoma were incubated with rabbit antibody to HRGP or CSVTCG or murine monoclonal antibody to TSP, or isotype-matched controls (Sigma), and developed as above. These studies were approved by the Institutional Animal Use Committee.
Matrigel mixed was injected subcutaneously into the midline of mice and resulting plugs were harvested after 10 days, fixed, and paraffin embedded, sectioned, stained with. hematoxylin and eosin, and photographed at 200× magnification. […]

TSP-1 = TSP-1 (Homo sapiens, UniProt P07996); details: saturable, reversible binding; read-out: affinity of HRGP binding to TSP-1; cited from earlier work
Sequence of TSP-1 (P07996 19-1170): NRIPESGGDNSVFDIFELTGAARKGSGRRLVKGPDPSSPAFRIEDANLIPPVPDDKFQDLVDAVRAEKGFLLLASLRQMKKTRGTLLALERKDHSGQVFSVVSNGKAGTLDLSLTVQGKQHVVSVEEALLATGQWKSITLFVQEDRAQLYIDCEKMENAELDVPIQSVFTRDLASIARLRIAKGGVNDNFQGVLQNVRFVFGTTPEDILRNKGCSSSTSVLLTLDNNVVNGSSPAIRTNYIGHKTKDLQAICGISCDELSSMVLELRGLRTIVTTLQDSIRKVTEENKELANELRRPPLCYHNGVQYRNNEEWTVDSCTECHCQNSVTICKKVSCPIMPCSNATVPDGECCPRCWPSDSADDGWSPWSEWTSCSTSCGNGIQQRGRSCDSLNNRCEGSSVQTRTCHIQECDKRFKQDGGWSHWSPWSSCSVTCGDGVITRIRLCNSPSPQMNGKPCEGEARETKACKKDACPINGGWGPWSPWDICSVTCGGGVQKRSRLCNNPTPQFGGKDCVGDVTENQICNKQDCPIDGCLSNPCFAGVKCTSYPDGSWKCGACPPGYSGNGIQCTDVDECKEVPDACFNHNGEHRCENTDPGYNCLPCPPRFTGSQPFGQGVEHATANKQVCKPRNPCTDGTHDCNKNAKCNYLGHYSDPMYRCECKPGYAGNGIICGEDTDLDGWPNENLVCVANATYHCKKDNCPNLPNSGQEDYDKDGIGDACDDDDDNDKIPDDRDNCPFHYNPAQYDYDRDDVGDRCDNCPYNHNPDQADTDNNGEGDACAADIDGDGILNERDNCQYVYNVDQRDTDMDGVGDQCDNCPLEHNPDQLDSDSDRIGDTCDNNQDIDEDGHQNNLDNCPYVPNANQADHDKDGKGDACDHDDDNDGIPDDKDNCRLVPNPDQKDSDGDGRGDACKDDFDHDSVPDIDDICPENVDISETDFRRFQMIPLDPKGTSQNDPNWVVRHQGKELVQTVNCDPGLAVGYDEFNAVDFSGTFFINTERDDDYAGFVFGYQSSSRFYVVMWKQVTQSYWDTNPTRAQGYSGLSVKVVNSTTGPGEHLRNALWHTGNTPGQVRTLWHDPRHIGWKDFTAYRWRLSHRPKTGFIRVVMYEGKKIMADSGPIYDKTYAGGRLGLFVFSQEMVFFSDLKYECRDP

[1] = tested on: Human dermal microvascular EC (HMVEC); assay: Tube formation assay on Matrigel; type: cell-based
Method: Tube Formation Assay. Early passage (P2 or P3) HMVEC in 0.2% MVGS were grown on 150 μl of Matrigel (Becton Dickinson, Bedford, Mass., USA) at 3×10^4 cells per well of 48-well plates. Reagents were added and cells were incubated at 5% CO2, 37° C. for 24 hours then photographed. Images were scanned and number of branched structures was counted using Scion Image software (Frederick, Md., USA).
HRGP inhibits the anti-angiogenic effect of TSP-1 in vitro. Microvascular EC were grown on Matrigel under low serum concentrations (0.2%) in the presence of bFGF (2 ng/ml), conditions which are known to induce tube formation. […] The anti-angiogenic activity of TSP-1 was abolished by the addition of HRGP (15 nM), which restored the ability of the EC to form tubular structures. (c).

wild type C57BL/6 mice = assay: In vivo corneal angiogenesis assay, wild type mice
Method: (§1) FIG. 3. HRGP abrogates the effect of endogenous TSP in the corneal angiogenesis assay. Pellets containing bFGF at various doses with and without HRGP (50 ng) were implanted into the corneas of wild type C57BL/6 (closed symbols) or CD 36 null mice (open symbols), and area of neovascularization was measured after five days. HRGP (--●--) augmented the dose-dependent effect of bFGF (—▪—) in the wild type mice (p=0.0004 by ANOVA). In CD36 null mice, there was an enhanced dose response to bFGF (—□—) (p=0.01), but no effect seen with the addition of HRGP (--◯--). Results represent mean±SE of>6 replicates.
(§2) In vivo corneal angiogenesis assays. Pellets composed of hydron (Hydro Med Sciences, Cranbury, N.J.) and sucralfate (Teva Pharmaceuticals, North Wales, Pa.) were mixed with proteins or growth factors, and were prepared and implanted into the comeas of C57B1/6 mice as described (38). After 5 days, eyes were viewed under a dissecting microscope and photographed with a Sony DKC-1000 digital camera. The area of neovascularization was calculated by measuring vessel length from limbus towards the pellet and number of clock hours of vascularization as described (39, 40). Studies were approved by the Institutional Animal Use Committee.
In a second type of in vivo experiment, hydron/sucralfate pellets containing bFGF, TSP-1, and/or HRGP were implanted in the corneas of C57B1/6 mice. […] Similar results were obtained when HRGP was added in a separate pellet from bFGF and TSP-1.
In fact, the dose response curve of bFGF in wild type mice in the presence of HRGP was similar to that seen with bFGF alone in the CD36 null mice. […] The resulting pellet was removed after 10 days, processed and stained for histologic examination and blood vessel counts. TSP-1 inhibited bFGF-induced blood vessel formation (14±8% of blood vessels/mm^2 seen with bFGF), and that HRGP inhibited the anti-angiogenic effect of TSP-1 (80±13%).

CD36 null mice = assay: In vivo corneal angiogenesis assay, CD36 null mice
Method: as §1, §2
In fact, the dose response curve of bFGF in wild type mice in the presence of HRGP was similar to that seen with bFGF alone in the CD36 null mice. […]

[2] = tested on: Human dermal microvascular EC (HMVEC); assay: Endothelial cell chemotaxis assay (modified Boyden chamber); type: cell-based
Method: Endothelial Cell (EC) chemotaxis assays were performed as described using a modified Boyden chamber with 8 μm gelatin-coated membranes (22). Briefly, confluent flasks of HMVEC were grown in 0.1% MVGS overnight and plated at 3×10^4 cells per well on a gelatinized porous membrane (Osmonics, Minnetonka, Minn., USA). Reagents were added to wells and cells were allowed to migrate at 5% CO2, 37° C. for 4 hours. Membranes were stained and the number of cells migrating was counted. Results were expressed as the percentage of maximum cells migrating towards bFGF (38-113 cells/10 high power fields) minus the number of cells migrating in the absence of bFGF (4-13cells/10 hpf).
HRGP inhibits the anti-chemotactic effect of TSP-1. Because the type I repeat also mediates the interaction of TSP-1 with HRGP, we studied the effect of HRGP on angiogenesis. EC migration towards bFGF was measured using a modified Boyden chamber with an 8 μm gelatin-coated membrane in the presence and absence of TSP-1 (2 nM) and increasing concentrations of HRGP (0-100 nM). Data from 3 separate experiments are expressed as a percentage of migration in the presence of bFGF alone. We measured migration of CD36-expressing microvascular EC towards bFGF. The addition of TSP-1 inhibited bFGF-induced migration of EC (approx. 30%±3% of control 100% value without added TSP-1). […]

[3] = molecular target: T1, 125I-TSP-1 binding to HRGP (Homo sapiens, UniProt P07996); assay: Solid phase binding assay, competition with CD36 fusion proteins; details: increasing concentrations of fusion protein
T1 construct: TSP-1 was purified from human platelet releasate; from tissue; host or cells: TSP-1 from human platelet releasate; HRGP from human plasma
T1 sequence (P07996 19-1170): as above
Method: Solid phase binding assays were performed as described (18). Briefly, HRGP in carbonate buffer was immobilized on 96-well strips (Immulon-4 Remove-a-well, Dynatech Laboratories Inc., Burlington, Mass., USA) overnight at 4° C. After blocking with 1% BSA, ^125I-TSP-1 was incubated in the presence of varying concentrations of CD36-FP in triplicate, and bound radioactivity was quantified on a gamma counter. Non-specific binding was determined by carrying out binding in the presence of excess unlabeled ligand.
TSP-1 binding to HRGP: competition with CD36.

Row | Molecule | blood vessels/mm^2, % of that seen with bFGF (C57B1/6 mice; HRGP added to bFGF + TSP-1 in Matrigel, 10 days) | angiogenesis in Matrigel plug (histology) (C57B1/6 mice; plugs harvested after 10 days, representative images of 4 experiments) | Kd (TSP-1) | effect on the anti-angiogenic activity of TSP-1 (tube formation) ([1]; HRGP 15 nM added to TSP-1 2 nM + bFGF 2 ng/ml) | induction of tube formation ([1]; agent alone, low serum, Matrigel) | effect on angiogenic activity (dose response) of bFGF (wild type C57BL/6 mice; HRGP 50 ng, bFGF 2.5 to 10 ng, wild type mice, p=0.0004 by ANOVA) | Area of Neovascularization (mm^2) ± SE (wild type C57BL/6 mice; Wild type mouse, corneal pellet, 5 days) | induction of corneal angiogenesis by agent alone (wild type C57BL/6 mice; pellet without bFGF) | Area of Neovascularization (mm^2) ± SE (CD36 null mice; CD36 −/− mouse, corneal pellet, 5 days) | effect on sensitivity to low concentrations of bFGF (CD36 null mice; HRGP 50 ng, CD36 null mice) | EC migration towards bFGF, percentage of control ([2]; TSP-1 2 nM plus 10 nM HRGP) | EC migration towards bFGF, percentage of control ([2]; TSP-1 2 nM plus 100 nM HRGP) | inhibition of 125I-TSP-1 binding to immobilized HRGP [3]
1 | B1 | 80±13% | had no effect | 7 nM | abolished | did not directly induce tube formation | significantly increased; also recorded: augmented | 0 ± 0 mm^2 | did not induce angiogenesis | 0.02 ± 0.004 mm^2 | did not effect sensitivity; also recorded: no effect | approx. 30%±15% | approx. 75%±15% | 
2 | B2 |  |  |  |  |  |  |  |  |  |  |  |  | had no effect
